From paper PMC12230644, “A Bacteriophage‐Derived Primase‐Helicase Orchestrates Plant Organellar DNA Replication” (Physiologia Plantarum, 2025)
Values joined by “and” are separate entries in the source; they are usually repeats but may differ in a detail not shown here. Identical values can stand only once.

T1: AtPolIA (Arabidopsis thaliana, UniProt F4I6M1 92-1050)
T1 sequence: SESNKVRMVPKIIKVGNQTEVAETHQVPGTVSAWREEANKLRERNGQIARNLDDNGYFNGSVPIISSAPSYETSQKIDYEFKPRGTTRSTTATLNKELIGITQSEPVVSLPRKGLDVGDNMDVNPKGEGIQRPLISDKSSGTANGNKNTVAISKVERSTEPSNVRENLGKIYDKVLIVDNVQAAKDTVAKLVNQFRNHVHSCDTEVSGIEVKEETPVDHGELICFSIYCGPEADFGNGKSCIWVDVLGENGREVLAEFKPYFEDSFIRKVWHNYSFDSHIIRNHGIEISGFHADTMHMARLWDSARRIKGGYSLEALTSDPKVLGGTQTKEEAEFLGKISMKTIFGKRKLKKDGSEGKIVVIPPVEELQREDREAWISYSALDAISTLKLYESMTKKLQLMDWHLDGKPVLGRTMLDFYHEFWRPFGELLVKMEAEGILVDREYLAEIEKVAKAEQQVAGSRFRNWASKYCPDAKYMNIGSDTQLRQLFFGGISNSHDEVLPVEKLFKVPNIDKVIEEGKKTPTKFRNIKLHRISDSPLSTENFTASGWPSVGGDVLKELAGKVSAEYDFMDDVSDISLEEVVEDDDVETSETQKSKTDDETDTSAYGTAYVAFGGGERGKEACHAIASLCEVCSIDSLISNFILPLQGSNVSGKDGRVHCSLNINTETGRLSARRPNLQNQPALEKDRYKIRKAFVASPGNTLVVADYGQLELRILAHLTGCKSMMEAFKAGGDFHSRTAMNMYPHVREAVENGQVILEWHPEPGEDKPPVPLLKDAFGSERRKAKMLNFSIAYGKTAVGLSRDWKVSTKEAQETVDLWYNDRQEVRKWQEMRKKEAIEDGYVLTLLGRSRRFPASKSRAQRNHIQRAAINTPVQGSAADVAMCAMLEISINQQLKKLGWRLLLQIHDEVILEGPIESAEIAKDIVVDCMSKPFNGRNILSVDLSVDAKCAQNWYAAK

T2: AtTwinkle (Arabidopsis thaliana, UniProt B5X582 92-709)
T2 sequence: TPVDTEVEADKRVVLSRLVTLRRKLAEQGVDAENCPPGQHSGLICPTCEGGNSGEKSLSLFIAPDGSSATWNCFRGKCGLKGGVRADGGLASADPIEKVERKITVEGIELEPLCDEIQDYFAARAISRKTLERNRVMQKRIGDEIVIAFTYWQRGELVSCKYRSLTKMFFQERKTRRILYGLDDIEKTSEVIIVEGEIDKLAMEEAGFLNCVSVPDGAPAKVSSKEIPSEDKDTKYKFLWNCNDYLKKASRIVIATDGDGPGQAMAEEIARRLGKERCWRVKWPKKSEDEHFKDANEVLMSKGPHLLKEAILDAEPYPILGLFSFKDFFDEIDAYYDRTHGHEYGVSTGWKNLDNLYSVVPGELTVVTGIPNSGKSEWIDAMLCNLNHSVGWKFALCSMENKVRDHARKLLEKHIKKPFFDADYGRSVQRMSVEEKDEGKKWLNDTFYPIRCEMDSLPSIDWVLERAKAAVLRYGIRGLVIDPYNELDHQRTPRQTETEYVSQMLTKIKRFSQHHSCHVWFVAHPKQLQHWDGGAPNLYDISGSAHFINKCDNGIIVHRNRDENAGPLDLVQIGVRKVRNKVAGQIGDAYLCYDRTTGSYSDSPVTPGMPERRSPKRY

B1: AtTwinkle (bacteriophage‐related primase‐helicase from Arabidopsis thaliana), processed form (enzyme, UniProt B5X582 92-709, looked up)
chain: T2 sequence
notes: codon-optimised gene; The results call this construct 'full-length'; the methods give residues 92-709; The oligomer size is told differently in text (nonamer and a larger complex) and legend (hexamer), so copies is left empty; The methods name pET19b for cloning and pCRI1b-AtTwinkle for mutagenesis; also called plant Twinkle; full‐length AtTwinkle; source: E. coli BL21(DE3) with pKJ7 chaperones, …
B2: AtHelicase (helicase domain of AtTwinkle) (domain or fragment, Arabidopsis thaliana, UniProt B5X582 402-709, looked up)
chain: ILDAEPYPILGLFSFKDFFDEIDAYYDRTHGHEYGVSTGWKNLDNLYSVVPGELTVVTGIPNSGKSEWIDAMLCNLNHSVGWKFALCSMENKVRDHARKLLEKHIKKPFFDADYGRSVQRMSVEEKDEGKKWLNDTFYPIRCEMDSLPSIDWVLERAKAAVLRYGIRGLVIDPYNELDHQRTPRQTETEYVSQMLTKIKRFSQHHSCHVWFVAHPKQLQHWDGGAPNLYDISGSAHFINKCDNGIIVHRNRDENAGPLDLVQIGVRKVRNKVAGQIGDAYLCYDRTTGSYSDSPVTPGMPERRSPKRY
notes: AtTwinkle, Arabidopsis thaliana, AT1G30680, helicase domain, residues 402-709; Modified pET28-SUMO vector; also called helicase module of AtTwinkle; wild‐type AtHelicase; source: E. coli BL21(DE3) with pKJ7 chaperones, purified (Ni‐NTA, heparin, Superdex 200)
B3: AtHelicaseΔ10 (AtHelicase lacking the last 10 amino acids) (domain or fragment)
chain: ILDAEPYPILGLFSFKDFFDEIDAYYDRTHGHEYGVSTGWKNLDNLYSVVPGELTVVTGIPNSGKSEWIDAMLCNLNHSVGWKFALCSMENKVRDHARKLLEKHIKKPFFDADYGRSVQRMSVEEKDEGKKWLNDTFYPIRCEMDSLPSIDWVLERAKAAVLRYGIRGLVIDPYNELDHQRTPRQTETEYVSQMLTKIKRFSQHHSCHVWFVAHPKQLQHWDGGAPNLYDISGSAHFINKCDNGIIVHRNRDENAGPLDLVQIGVRKVRNKVAGQIGDAYLCYDRTTGSYSDSPVTPG
B4: replication fork OligoJ+OligoK+OligoL (mixed)
DNA 1: AGCTATGACCATGATTAC
DNA 2: AGCTACCATGCCTGCACGAATTAAGCAATTCGTAATCATGGTCATAGCT
DNA 3: CAACTGCTCCGATGCCTTACCGTGCTTAATTCGTGCAGGCATGGTAGCT

Assays:
[1] = target: the molecule itself; experiment: SEC; Superdex 200 gel filtration column calibrated with thyroglobulin, γ‐globulin, ovalbumin and myoglobin; in the absence of metal ions and nucleotides; size of the oligomer from the apparent mass
[2] = target: AtPolIB (Arabidopsis thaliana organellar DNA polymerase IB) (Arabidopsis thaliana); experiment: MST; fluorescently labelled AtPolIB (His‐tag labelling kit) at constant concentration, AtHelicase or AtHelicase‐Δ10 titrated; PBS with 0.05% Tween‐20; NanoTemper Monolith NT.115p; no DNA
AtPolIA = target: T1, AtPolIA; experiment: EMSA; no AtTwinkle; EMSA on 8% polyacrylamide gel; binding buffer, pH and temperature not given in the material (helicase assays: 20 mM Bis-Tris-Propane pH 7.5, 10 mM MgCl2, 10 mM); settings: protein: recombinant; tags: Cy5-labeled; label: OligoJ 5'-Cy2; fork, strands 1:2 (18 bp) and 2:3 (27 bp); 4 nt gap on template; 22 nt 5' ssDNA tail on strand 3
AtTwinkle = target: T2, AtTwinkle; experiment: EMSA; no polymerase; EMSA on 8% polyacrylamide gel; binding buffer, pH and temperature not given in the material (helicase assays: 20 mM Bis-Tris-Propane pH 7.5, 10 mM MgCl2, 10 mM); settings: protein: recombinant; tags: His tag (pET19b; mutagenesis section names pCRI1b-AtTwinkle); chain copies: 6; label: OligoJ 5'-Cy2; fork, strands 1:2 (18 bp) and 2:3 (27 bp); 4 nt gap on template; 22 nt 5' ssDNA tail on strand 3
AtTwinkle;AtPolIA = AtTwinkle;AtPolIA (Arabidopsis thaliana;Arabidopsis …, UniProt B5X582;F4I6M1 92-709;92-1050, |); experiment: EMSA; constant AtPolIA, high AtTwinkle; Cy2/Cy5 (orange) band at gel top, AtPolIA-DNA band disappears; EMSA on 8% polyacrylamide gel; binding buffer, pH and temperature not given in the material (helicase assays: 20 mM Bis-Tris-Propane pH 7.5, 10 mM MgCl2, 10 mM); settings: protein: recombinant;recombinant; tags: His tag (pET19b; mutagenesis section names pCRI1b-AtTwinkle);Cy5-labeled; label: OligoJ 5'-Cy2; fork, strands 1:2 (18 bp) and 2:3 (27 bp); 4 nt gap on template; 22 nt 5' ssDNA tail on strand 3

Binder | stoichiometry N [1] | Kd [2] [nM] | binding result (AtPolIA) | binding result (AtTwinkle) | binding result (AtTwinkle;AtPolIA)
B1 | 9 and 6 | – | – | – | –
B2 | 6 | 210 | – | – | –
B3 | – | 3640 | – | – | –
B4 | – | – | binds | binds | binds
